According to the supplement of paper PMC9876800:

Test system: peptide library, one residue held at a place counted from the S/T acceptor
Experiment: relative phosphorylation of the sub-library (ratio to the mean residue at this position); human; higher = residue favoured
Procedure, shortened: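 Spots on streptavidin membranes were phosphorimaged and quantified by densitometry to measure phosphorylation of biotinylated degenerate peptide sub-libraries by purified recombinant kinases, human or orthologue constructs. The reactions ran in 384-well plates for 90 min under kinase-specific conditions, with peptides at 50 μM and 50 μM ATP spiked with γ-32P-ATP. Relative sub-library phosphorylation is the ratio to the mean residue at that position.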

Sequence of CSNK2A1, construct: Full length (P68400 whole entry, looked up): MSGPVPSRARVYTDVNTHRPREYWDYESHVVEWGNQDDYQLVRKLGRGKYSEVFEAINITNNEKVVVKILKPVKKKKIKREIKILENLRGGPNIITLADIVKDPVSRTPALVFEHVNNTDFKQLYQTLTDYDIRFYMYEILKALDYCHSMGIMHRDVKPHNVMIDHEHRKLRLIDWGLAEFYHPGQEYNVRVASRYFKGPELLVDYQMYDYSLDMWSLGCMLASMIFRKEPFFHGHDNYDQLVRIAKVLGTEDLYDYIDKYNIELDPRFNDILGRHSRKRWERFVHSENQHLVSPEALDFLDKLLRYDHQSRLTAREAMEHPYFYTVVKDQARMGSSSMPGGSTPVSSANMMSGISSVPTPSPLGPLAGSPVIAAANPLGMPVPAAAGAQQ
Sequence of AURKB, construct: Full length (Q96GD4 whole entry, looked up): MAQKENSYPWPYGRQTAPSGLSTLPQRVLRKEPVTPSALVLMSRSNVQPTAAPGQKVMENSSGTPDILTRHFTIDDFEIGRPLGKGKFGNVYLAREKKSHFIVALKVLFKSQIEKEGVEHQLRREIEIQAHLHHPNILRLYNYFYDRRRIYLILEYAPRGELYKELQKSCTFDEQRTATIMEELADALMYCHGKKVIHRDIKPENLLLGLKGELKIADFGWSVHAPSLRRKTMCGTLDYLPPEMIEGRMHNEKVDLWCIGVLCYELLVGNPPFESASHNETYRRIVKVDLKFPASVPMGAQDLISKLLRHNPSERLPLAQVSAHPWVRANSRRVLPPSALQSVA

AURKB, construct: Full length (from UniProt Q96GD4)
relative phosphorylation
Details	at +1	at +2	at +3	at +4	at -1	at -2	at -3	at -4	at -5
A fixed	0.803	0.959	0.784	0.784	0.651	0.28	0.727	1.01	1.08
D fixed	0.673	0.507	0.523	0.986	0.489	0.176	0.485	0.629	0.734
E fixed	0.611	0.427	0.498	0.727	0.433	0.183	0.422	0.653	0.511
F fixed	1.34	1.05	1.35	0.856	0.678	0.247	0.633	0.724	0.867
G fixed	1.11	1.59	1.3	1.06	0.553	0.381	0.954	1.17	1.24
H fixed	0.933	1.6	1.51	1.09	0.971	0.542	1.02	1.03	1.06
I fixed	1.21	0.911	0.957	0.869	0.735	0.217	0.553	0.709	0.855
K fixed	0.78	0.77	0.955	1.13	2.06	2.28	2.2	1.8	1.81
L fixed	1.49	0.948	1.14	0.989	1.23	0.25	0.554	0.738	0.779
M fixed	1.59	0.864	0.901	1.06	0.97	0.243	0.661	0.829	0.786
N fixed	1.33	1.04	0.981	1.08	0.788	0.377	0.784	0.844	0.966
P fixed	0.212	1.07	1.1	1.32	0.917	0.327	0.9	0.953	0.985
Q fixed	1.18	1.13	0.923	1.32	1.08	0.528	0.775	0.849	0.911
R fixed	1.05	0.972	0.968	1.01	2.98	10.2	4.37	2.72	1.9
V fixed	0.82	0.897	0.844	0.823	0.827	0.207	0.564	0.687	0.762
W fixed	0.932	1.05	1.23	1.17	0.605	0.287	0.735	0.855	0.931
Y fixed	0.922	1.22	1.05	0.734	1.04	0.276	0.665	0.798	0.831
pThr fixed	0.88	0.581	0.555	1.08	0.413	0.314	0.591	0.691	0.716
pTyr fixed	0.59	0.435	0.847	0.784	0.461	0.272	0.62	0.556	0.66

CSNK2A1, construct: Full length (from UniProt P68400)
relative phosphorylation
Details	at +1	at +2	at +3	at +4	at -1	at -2	at -3	at -4	at -5
A fixed	0.479	1.2	0.406	0.847	0.867	1.02	0.979	1.01	1.09
D fixed	9.09	3.13	2.81	2.06	3.14	1.45	1.78	1.79	1.46
E fixed	3.33	2.03	9.11	2.6	2.33	1.37	1.53	1.56	1.2
F fixed	0.24	0.739	0.307	0.878	0.886	1.04	0.97	0.88	0.976
G fixed	0.561	0.782	0.533	1.06	0.687	0.891	1.65	1.03	0.98
H fixed	0.333	0.993	0.347	0.75	0.829	0.968	0.907	0.895	1.08
I fixed	0.208	0.654	0.249	0.811	0.61	0.94	0.759	0.839	0.883
K fixed	0.23	0.374	0.236	0.53	0.48	0.458	0.566	0.76	0.963
L fixed	0.237	0.499	0.246	0.64	0.926	0.693	0.702	0.892	0.726
M fixed	0.259	0.524	0.257	0.916	0.934	0.705	0.823	0.941	0.911
N fixed	0.5	1.42	0.455	0.904	0.796	0.813	1.05	1.04	1.05
P fixed	0.232	0.543	0.412	0.597	0.541	0.778	0.853	0.807	0.751
Q fixed	0.352	0.68	0.4	0.832	0.922	0.678	0.869	0.867	0.808
R fixed	0.221	0.426	0.258	0.553	0.435	0.589	0.657	0.87	0.943
V fixed	0.249	0.923	0.263	0.76	0.751	0.859	0.801	0.826	0.969
W fixed	0.236	1.16	0.328	1.32	0.914	1.12	0.897	0.927	1.15
Y fixed	0.238	0.923	0.385	0.933	0.954	2.62	1.21	1.08	1.06
pThr fixed	5.46	1.84	1.96	6.46	1.96	1.59	2.22	1.83	1.39
pTyr fixed	0.808	2.14	4.29	3.87	3.49	2.41	2.37	1.4	1.47
